Assay results taken from US20210087291A1 (Hoffmann-La Roche, published 2021).
Read-outs that look alike come from different tables or passages of the source.

Assays:
[1] = molecular target: T1, human FolR1 on cells (human, UniProt P15328 25-234); experiment: flow cytometry on HeLa cells (human FolR1), fluorescently labeled anti-human secondary antibody
T1 construct: also called FolR1 on HeLa, SKOV3, HT-29 tumor cells; HEK cells transfected with human FolR1
Method: (§1) Binding of newly generated FolR1 binders to FolR1 expressed on HeLa cells were determined by flow cytometry. Bound antibodies were detected with a fluorescently labeled anti-human secondary antibody.
(§2) The identified binders were converted into a human IgG1 format and binding to FolR1 high expressing HeLa cells was addressed.

[2] = molecular target: T2, human FolR2 on transiently transfected HEK cells (human, UniProt P14207 17-230); experiment: flow cytometry on HEK cells transiently transfected with human FolR2, anti-human secondary antibody; concentration not given
[3] = molecular target: T3, human FolR1 ECD-AcTev-Fcknob-Avi tag + Fc hole, biotinylated monomeric Fc fusion (human, UniProt P0DOX5 223-449 = IgG part); experiment: SPR, IgG single injection
T3 construct: also called huFolR1; huFolR1-Fc

[4] = molecular target: T4, cynomolgus FolR1 ECD-AcTev-Fcknob-Avi tag + Fc hole, biotinylated monomeric Fc fusion (cynomolgus, UniProt P0DOX5 223-449 = IgG part); experiment: SPR, IgG single injection
T4 construct: also called cyFolR1; cyno FolR1-Fc

[5] = molecular target: T5, human FolR2 ECD-AcTev-Fcknob-Avi tag + Fc hole, biotinylated monomeric Fc fusion (human, UniProt P0DOX5 223-449 = IgG part); experiment: SPR, IgG single injection
T5 construct: also called huFolR2; FolR2-Fc

[6] = molecular target: T6, human FolR3 ECD-AcTev-Fcknob-Avi tag + Fc hole, biotinylated monomeric Fc fusion (human, UniProt P0DOX5 223-449 = IgG part); experiment: SPR, IgG single injection
T6 construct: also called huFolR3; FolR3-Fc

[7] = molecular target: T7, murine FolR1 ECD-AcTev-Fcknob-Avitag + Fc hole, biotinylated monomeric Fc fusion (murine, UniProt P0DOX5 223-449 = IgG part); experiment: SPR, apparent KD, bivalent binding, 2.3 uM folate in running buffer
T7 construct: also called muFolR1; murine FolR1-Fc
Method: (§3) Binding of FolR1 binders as IgG or in the T-cell bispecific format to different recombinant folate receptors (human FolR1, 2 and 3, murine FolR1 and cynomolgus FolR1; all as Fc fusions) was assessed by surface plasmon resonance (SPR).
(§4) Recombinant biotinylated monomeric Fc fusions of human, cynomolgus and murine Folate Receptor 1 (FolR1-Fc) were directly coupled on a SA chip using the standard coupling instruction (Biacore, Freiburg/Germany). The immobilization level was about 300-400 RU. The anti-FolR1 IgGs or T cell bispecifics were passed at a concentration range from 2.1 to 500 nM with a flow of 30 μL/minutes through the flow cells over 180 seconds. The dissociation was monitored for 600 seconds. Bulk refractive index differences were corrected for by subtracting the response obtained on reference flow cell immobilized with recombinant biotinylated IL2 receptor Fc fusion. […] The binding curves resulting from the bivalent binding of the IgGs or T cell bispecifics were approximated to a 1:1 Langmuir binding and fitted with that model (which is not correct, but gives an idea of the avidity). The apparent avidity constants for the interactions were derived from the rate constants of the fitting using the Bia Evaluation software (GE Healthcare).

[8] = molecular target: T1, human FolR1 on cells; experiment: flow cytometry on HeLa cells (human FolR1), fluorescently labeled anti-human secondary antibody; remark: listed apart in the source
Method: as §1, §2

[9] = molecular target: T7, murine FolR1 ECD-AcTev-Fcknob-Avitag + …; experiment: SPR, 500 nM IgG single injection
[10] = molecular target: T7, murine FolR1 ECD-AcTev-Fcknob-Avitag + …; experiment: SPR, IgG single injection
[11] = molecular target: T1, human FolR1 on cells; experiment: flow cytometry on HeLa cells (human FolR1), fluorescently labeled anti-human secondary antibody; remark: listed apart in the source
Method: as §1, §2

[12] = molecular target: T8, cynomolgus FolR1 on transiently transfected HEK cells (cynomolgus, UniProt P15328 25-234 (human entry)); experiment: flow cytometry on HEK cells transiently transfected with cyno FolR1, anti-human secondary antibody
T8 construct: also called cyno FolR1; cyFoLR1
From the text: Cross-reactivity of the FolR1 antibodies to cyno FolR1 was addressed on HEK cells transiently transfected with cyFolR1 by flow cytometry. The antibodies were detected with a fluorescently labeled anti-human secondary antibody.
In parallel cross-reactivity of the FolR1 clones to cyno FolR1 was addressed by performing binding studies to HEK cells transiently transfected with cyno FolR1.

[13] = molecular target: T2, human FolR2 on transiently transfected …; experiment: flow cytometry on HEK cells transiently transfected with human FolR2, anti-human secondary antibody; concentration not given; remark: listed apart in the source
[14] = molecular target: T3, human FolR1 ECD-AcTev-Fcknob-Avi tag + …; experiment: SPR, apparent KD, bivalent binding (avidity)
Method: as §3, §4

[15] = molecular target: T4, cynomolgus FolR1 ECD-AcTev-Fcknob-Avi …; experiment: SPR, apparent KD, bivalent binding (avidity)
Method: as §3, §4

[16] = molecular target: T7, murine FolR1 ECD-AcTev-Fcknob-Avitag + …; experiment: SPR, apparent KD, bivalent binding (avidity)
Method: as §3, §4

[17] = molecular target: T3, human FolR1 ECD-AcTev-Fcknob-Avi tag + …; experiment: SPR, bivalent binding (avidity), antigen on SA chip
Method: as §3, §4

[18] = molecular target: T4, cynomolgus FolR1 ECD-AcTev-Fcknob-Avi …; experiment: as above
Method: as §3, §4

[19] = molecular target: T7, murine FolR1 ECD-AcTev-Fcknob-Avitag + …; experiment: as above
Method: as §3, §4

[20] = molecular target: T3, human FolR1 ECD-AcTev-Fcknob-Avi tag + …; experiment: SPR, monovalent, antibody captured by anti-Fab
Method: as §3
(§5) For affinity measurement, direct coupling of around 6000-7000 resonance units (RU) of the anti-human Fab specific antibody (Fab capture kit, GE Healthcare) was performed on a CM5 chip at pH5.0 using the standard amine coupling kit (GE Healthcare). Anti-FolR1 IgGs or T cell bispecifics were captured at 20 nM with a flow rate of 10 μl/min for 20 or 40 sec, the reference flow cell was left without capture. […] The dissociation phase was monitored for 240 sand triggered by switching from the sample solution to HBS-EP. The chip surface was regenerated after every cycle using a double injection of 60 sec 10 mM Glycine-HCl pH 2.1 or pH1.5. Bulk refractive index differences were corrected for by subtracting the response obtained on the reference flow cell 1. The affinity constants for the interactions were derived from the rate constants by fitting to a 1:1 Langmuir binding using the Bia Evaluation software (GE Healthcare).

[21] = molecular target: T4, cynomolgus FolR1 ECD-AcTev-Fcknob-Avi …; experiment: SPR, monovalent, antibody captured by anti-Fab
Method: as §3, §5

[22] = molecular target: T1, human FolR1 on cells; experiment: flow cytometry on HEK cells transiently transfected with human FolR1, anti-human secondary antibody; concentration not given

T1 sequence (P15328 25-234 limits assumed): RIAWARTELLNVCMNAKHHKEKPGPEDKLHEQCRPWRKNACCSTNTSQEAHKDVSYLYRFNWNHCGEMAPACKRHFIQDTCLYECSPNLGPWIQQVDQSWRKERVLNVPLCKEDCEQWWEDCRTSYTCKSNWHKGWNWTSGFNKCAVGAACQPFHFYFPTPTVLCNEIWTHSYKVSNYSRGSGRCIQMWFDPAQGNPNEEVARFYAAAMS
T2 sequence (P14207 17-230 limits assumed): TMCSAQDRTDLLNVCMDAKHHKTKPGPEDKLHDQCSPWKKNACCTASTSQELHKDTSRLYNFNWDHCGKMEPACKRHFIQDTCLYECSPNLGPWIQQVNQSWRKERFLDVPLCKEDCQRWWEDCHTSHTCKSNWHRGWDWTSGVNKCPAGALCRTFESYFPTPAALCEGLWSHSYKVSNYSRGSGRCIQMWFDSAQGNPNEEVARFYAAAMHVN
T8 sequence (P15328 other isoform, or with tags, fused parts or gaps limits assumed): as the sequence (P15328 25-234 limits assumed) above, with I2T, W4R, R37K, Q117R, A146P, H171Y counted along it

B1: 19E5 IgG (antibody, V domains shown)
VH: QVQLVQSGAEVKKPGASVKVSCKASGYTFTSYYMHWVRQAPGQGLEWMGIINPSGGSTSYAQKFQGRVTMTRDTSTSTVYMELSSLRSEDTAVYYCARGEWRRYTSFDYWGQGTLVTVSS
VL: QAVVTQEPSLTVSPGGTVTLTCGSSTGAVTTSNYANWVQEKPGQAFRGLIGGTNKRAPGTPARFSGSLLGGKAALTLSGAQPEDEAEYYCALWYSNLWVFGGGTKLTVL
notes: human IgG1
EC50 (read off the curve) [1]: ~2 µg/mL | binding result [2]: binds

B2: 19H3 IgG (antibody, V domains shown)
VH: QVQLVQSGAEVKKPGASVKVSCKASGYTFTSYYMHWVRQAPGQGLEWMGIINPSGGSTSYAQKFQGRVTMTRDTSTSTVYMELSSLRSEDTAVYYCARTGWSRWGYMDYWGQGTLVTVSS
VL: QAVVTQEPSLTVSPGGTVTLTCGSSTGAVTTSNYANWVQEKPGQAFRGLIGGTNKRAPGTPARFSGSLLGGKAALTLSGAQPEDEAEYYCALWYSNLWVFGGGTKLTVL
notes: human IgG1
binding result [3]: no binding (tested: 500 nM) | binding result [4]: no binding (tested: 500 nM) | binding result [5]: no binding (tested: 500 nM) | binding result [6]: no binding (tested: 500 nM) | Kd [7]: 1.55 nM | binding result [8]: binds

B3: 20H7 IgG (antibody, V domains shown)
VH: QVQLVQSGAEVKKPGASVKVSCKASGYTFTSYYMHWVRQAPGQGLEWMGIINPSGGSTSYAQKFQGRVTMTRDTSTSTVYMELSSLRSEDTAVYYCARVGWYRWGYMDYWGQGTLVTVSS
VL: QAVVTQEPSLTVSPGGTVTLTCGSSTGAVTTSNYANWVQEKPGQAFRGLIGGTNKRAPGTPARFSGSLLGGKAALTLSGAQPEDEAEYYCALWYSNLWVFGGGTKLTVL
notes: human IgG1
binding result [5]: no binding (tested: 500 nM) | binding result [6]: no binding (tested: 500 nM) | binding result [9]: binds

B4: 9D11 IgG (antibody, V domains shown)
VH: QVQLVQSGAEVKKPGASVKVSCKASGYTFTSYYMHWVRQAPGQGLEWMGIINPSGGPTSYAQKFQGRVTMTRDTSTSTVYMELSSLRSEDTAVYYCARGDFAWLDYWGQGTLVTVSS
VL: not shown
notes: human IgG1
binding result [10]: no binding (tested: 500 nM) | binding result [5]: no binding (tested: 500 nM) | binding result [6]: no binding (tested: 500 nM) | binding result [11]: binds | binding result [12]: binds | binding result [13]: no binding

B5: 36F2 IgG (antibody, V domains shown)
VH: QVQLVQSGAEVKKPGASVKVSCKASGYTFTSYYMHWVRQAPGQGLEWMGIINPSGGSTSYAQKFQGRVTMTHDTSTSTVYMELSSLRSEDTAVYYCARSFFTGFHLDYWGQGTLVTVSS
VL: EIVLTQSPGTLSLSPGERATLSCRASQSVSSSYLAWYQQKPGQAPRLLIYGASSRATGIPDRFSGSGSGTDFTLTISRLEPEDFAVYYCQQYTNEHYYTFGQGTKVEIK
notes: human IgG1
binding result [5]: no binding (tested: 500 nM) | binding result [6]: no binding (tested: 500 nM) | Kd [14]: 5.74 nM | Kd [15]: 5.31 nM | Kd [16]: 1.63 nM | koff [17]: 0.0151 s⁻¹ | kon [17]: 2.62e+06 M⁻¹ s⁻¹ | koff [18]: 0.016 s⁻¹ | kon [18]: 3.02e+06 M⁻¹ s⁻¹ | koff [19]: 0.000603 s⁻¹ | kon [19]: 370000 M⁻¹ s⁻¹ | binding result [11]: binds | binding result [12]: binds | binding result [13]: no binding

B6: Mov19 IgG (antibody, V domains shown)
VH: QVQLQQSGAELVKPGASVKISCKASGYSFTGYFMNWVKQSHGKSLEWIGRIHPYDGDTFYNQNFKDKATLTVDKSSNTAHMELLSLTSEDFAVYYCTRYDGSRAMDYWGQGTTVTVSS
VL: DIELTQSPASLAVSLGQRAIISCKASQSVSFAGTSLMHWYHQKPGQQPKLLIYRASNLEAGVPTRFSGSGSKTDFTLNIHPVEEEDAATYYCQQSREYPYTFGGGTKLEIK
Kd [14]: 0.14 nM | Kd [15]: 0.108 nM | Kd [20]: 0.55 nM | koff [20]: 0.000159 s⁻¹ | kon [20]: 289000 M⁻¹ s⁻¹ | Kd [21]: 0.65 nM | koff [21]: 0.000193 s⁻¹ | kon [21]: 297000 M⁻¹ s⁻¹ | koff [17]: 0.000121 s⁻¹ | kon [17]: 861000 M⁻¹ s⁻¹ | koff [18]: 0.000139 s⁻¹ | kon [18]: 1.29e+06 M⁻¹ s⁻¹ | EC50 (read off the curve) [1]: ~1 µg/mL

B7: 19A4 IgG (antibody, V domains shown)
VH: QVQLVQSGAEVKKPGASVKVSCKASGYTFTSYYMHWVRQAPGQGLEWMGIINPSGGSTSYAQKFQGRVTMTRDTSTSTVYMELSSLRSEDTAVYYCARGGWIRWEHFDYWGQGTLVTVSS
VL: QAVVTQEPSLTVSPGGTVTLTCGSSTGAVTTSNYANWVQEKPGQAFRGLIGGTNKRAPGTPARFSGSLLGGKAALTLSGAQPEDEAEYYCALWYSNLWVFGGGTKLTVL
notes: human IgG1
binding result [22]: binds | binding result [2]: binds
